Results from publication PMC2394828 (Acta Crystallographica Section D: Biological Crystallography, 2007).
Where “and” joins values, the source holds several entries; their conditions need not be identical. Identical values can stand only once.

How the values were obtained:
crystal structure [1] = target: the molecule itself; assay: crystal structure
AUC + SEC = target: the molecule itself; assay: AUC + SEC
crystal structure [2] = target: the molecule itself; assay: crystal structure; remark: listed apart in the source

B1: anti-TRAP from Bacillus licheniformis (natural protein, UniProt Q65NU7 1-53, looked up)
chain: MVIATDDLETTCPNCNGSGREEPEPCPKCSGKGVILTAQGSTLLHFIKKHLNE
stoichiometry N (crystal structure [1]): 12

B2: thioredoxin peroxidase B from human erythrocytes (enzyme, UniProt P32119 1-198, looked up)
chain: MASGNARIGKPAPDFKATAVVDGAFKEVKLSDYKGKYVVLFFYPLDFTFVCPTEIIAFSNRAEDFRKLGCEVLGVSVDSQFTHLAWINTPRKEGGLGPLNIPLLADVTRRLSEDYGVLKTDEGIAYRGLFIIDGKGVLRQITVNDLPVGRSVDEALRLVQAFQYTDEHGEVCPAGWKPGSDTIKPNVDDSKEYFSKHN
stoichiometry N (AUC + SEC): 8 and 12
stoichiometry N (crystal structure [2]): 10
